# Assay: yeast display, Sf9 membrane polyspecificity reagent, FACS + sequencing; frameworks hold sequencing errors
# Outline: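 Using colony PCR, genes from sorted yeast display clones were amplified, then sequenced on MiSeq at 2 × 250 and filtered by CDR length. The clones had been stained with 10% biotinylated, detergent-solubilized Sf9 membrane reagent for 1 hour at 4 °C and sorted by FACS into low and high (top ~1%) gates on anti-HA and streptavidin fluorescence. Polyreactivity labels come from the gate of origin.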
row,Sequence,polyreactivity (PSR sort gate)
1,QVQLVESGGGLVQAGGSLRLSCAASGITLYYYTMGWYRQAPGKERELVAAISGSGGSTYYADSVKGRFTISRDNAKNTVYLQMNSLKPEDTAVYYCNTARSLKNHFYKYDYWGHGTQVTVSS,high polyreactivity
2,QVQLVESGGGLVQAGGSLRLSCAASGITRGSNAMGWYRQAPGTERELVAAITSGSSTYYADSVKGRFTISRDNAKNTVYLQMNSLKPEDTAVYYCAAEWWDVIAPYEYWGQGTQVTVSS,low polyreactivity
3,QVQLVESGGGLVQAGGSLRLSCAASGITSNSYAMGWYRQAPGKERELVATITSGGSTNYADSVKGRFTISRDNAKNSVYLQMNSLKPEDTAVYYCNREDWLPTQYDYWGQGTQVTVSS,low polyreactivity
4,QVQLVESGGGLVQAGGSLRLSCAASGITSPAYAMGWYRQAPGKEREFVAAISSSGVSTYYADSVKGRFTISRDNAKNTVYLQMNRLKPEDTAVYYCNTVSWPLSSKYYYWGQGTQVTVSS,high polyreactivity
5,QVQLVESGGGLVQAGGSLRLSCAASGITSRPYVMGGYRQAPGKERELVAAISLTGGRTYYADSVKGRFTISRDNAKNTVYLQMNSLKPEDTAVYYCAAKYSNGSGFDYWGQGTQVTVSS,high polyreactivity
6,QVQLVESGGGLVQAGGSLRLSCAASGITSRQYAMGWYRQAPGKERELVAAISFSGGRTYYADSVKGRFTISRDNAKNTVYLQMNSLKPEDTAVYYCATRNRYSPRDYWGQGTQVTVSS,high polyreactivity
7,QVQLVESGGGLVQAGGSLRLSCAASGITSSLNAMGWYRQAPGKERELVAAISWRGGSTYYADSVKGRFTISRDNAKNTVNLRMHSLKPEDTAVYYCNVVKRSFRYDYWGQGTQVTVSS,high polyreactivity
8,QVQLVESGGGLVQAGGSLRLSCAASGITSSYAMGWYRQAPGKERELVAAISRGGSTYYADSVKGRFTISRDNAKNTVYLLLNSLKPEDTAVYYCNKRRYPYGWGQGTLVTVSS,high polyreactivity
9,QVQLVESGGGLVQAGGSLRLSCAASGITSVVYAMGWYRQAPGKERELVAAISSAGSTYYADSVKGRFTISRDNAKNTVYLQMNSLKPEDTAVYYCAAAGYPQTYLYYYWGQGTQVTVSS,low polyreactivity
10,QVQLVESGGGLVQAGGSLRLSCAASGITVNSYAMGWYRQAPGKERELVAAISGSGSSTYYADSVKGRFTISRDNAKNTVYLQMNSLKPEDTAVYYCAATGFSSWTYYTHEYWGQGTQVTVSS,low polyreactivity
11,QVQLVESGGGLVQAGGSLRLSCAASGITVYVNVMGWYRQAPGKERELVAGISYSGGSTYYADSVKGRFTISRDNAKNTVYLQMNSLKPEDTAVYYCAADYWYYGSPVSRPYYYWGQGTQVTVSS,high polyreactivity
12,QVQLVESGGGLVQAGGSLRLSCAASGITYYRNAMGWYRQAPGKERELVAAISWSGGRTYYADSVKGRFTISRDNAKNTVYLQMNSLKPEDTAVYYCNKYTHYYDYDYWGQGTQVTVSS,high polyreactivity
13,QVQLVESGGGLVQAGGSLRLSCAASGKIFNNYVMGWYRQAPGKVRELVARIDSGGSTNYADSVKGRFTISRDNAKNTVYLQMNSLKPEDTAVYYCAARKLSSYAYDYWGQGTQVTVSS,low polyreactivity
14,QVQLVESGGGLVQAGGSLRLSCAASGLIFAEYAMGWYRQAPGKERELVARITSGGSTDYADSVKGRFTISRDNAKNTVYLQMNSLKPEDTALYYCAARYYSQDNNASTASDFDYWGQGTQVTVSS,low polyreactivity
15,QVQLVESGGGLVQAGGSLRLSCAASGLIFAHNTMGWYRQATGKERELVAAISATGDGNTYYADSLKGRFTISRDNAKNTVYLQMNSLKPEDTAVYYCNALYYDYYAEYYGESDYWGQGTQVTVSS,low polyreactivity
16,QVQLVESGGGLVQAGGSLRLSCAASGLIFAWYAMGWYRQAPGKERELVAAITGTGSSTYYADSVKGRFTISRDNAKNTVYLQMNSLKPEDTAVYYCNRGYFNSRTPTFDYWGQGTQVTVSS,low polyreactivity
17,QVQLVESGGGLVQAGGSLRLSCAASGLIFDINAMGWYRQAPGKERELVAAITWRGGSTYYADSVKGRFTISRDNAKNTVYLQMNSLKPEDTAVYYCAAGWSYRNGVGVGDFYYGYDYWGQGTQVTVSS,high polyreactivity
18,QVQLVESGGGLVQAGGSLRLSCAASGLIFDLYAMGWYRQAPGKERELVAAITWSGGSTYYADSVKGRFTISRDNAKNTVYLQMNSLKPEDTAVYYCAAETHLWYDFDYWGQGTQVTVSS,high polyreactivity
19,QVQLVESGGGLVQAGGSLRLSCAASGLIFDPNTMGWYRQAPGKERELVAAISSGGDTNYADSVKGRFTISRDNAKNTVYLQMNSLKPEDTAVYYCAAERYYFPRSYRYGYWGQGTQVTVSS,low polyreactivity
20,QVQLVESGGGLVQAGGSLRLSCAASGLIFDSDAMGWYRQAPGKERELVAAITYTGGSTYYADSVKGRFTISRDSAKNTVYLQMNSLKPEDTAVYYCAARRQRDRYGYWGQGTKVTVSS,high polyreactivity
21,QVQLVESGGGLVQAGGSLRLSCAASGLIFDVNTMGWYRQAPRKERELVAAITGSGGRTYYADSVKGRFTISRDNAKNTVYLQMNSLKPEDNAVYYCNARHPASGDLYRMDYWGQGTQVTVSS,low polyreactivity
22,QVQLVESGGGLVQAGGSLRLSCAASGLIFDYNAMGWYRQAPGKERELVAAISSGGSTYYADSVKGRFTISRDNAKNTVYLQMNSLKPEDTAVYYCATRRQAQYTRYYGSRQFYYWGQGTQVTVSS,high polyreactivity

row,Sequence,polyreactivity (PSR sort gate)
1,QVQLVESGGGLVQAGGSLRLSCAASGLIFDYNAMGWYRQAPGKEWELVAAISSGGSTYYADSVKGRFTISRDNANNTVYLQMNSLKPEDTAVYYCAARFSSYVRRYYYWGQGTQVTVSS,high polyreactivity
2,QVQLVESGGGLVQAGGSLRLSCAASGLIFDYYAMGWYRQAPGKERELVAAISSGGDTTYADSVKGRFTISRDNAKNTVYLQMNSLKPEDTAVYYCAADRWIPVYILGADGYDYWGQGTQVTVSS,low polyreactivity
3,QVQLVESGGGLVQAGGSLRLSCAASGLIFFQNAMGWYRQAPGKERELVAAITWSGGRTYYADSVKGRFTISRDNAKNTVYLQMKSLKPEDTEVYYCAADYDYPDYYAPSWPGYNYWGQGTQVTVSS,low polyreactivity
4,QVQLVESGGGLVQAGGSLRLSCAASGLIFFSYAMGWYRQAPGKERELVAAISRRGGRTYYADSVKGRFTISRDNAKNTVYLQMNSLKPEDTAASYCATYVASHRGDRTYDHWGQCTQVTVSS,low polyreactivity
5,QVQLVESGGGLVQAGGSLRLSCAASGLIFFTYAMGWYRQAPGKERELVAAITGRGGRTYYADSVKGRFTISRDNAKNTVYLQMNSLKPEDTAVYYCNAEYRYYQKTPGRYTNVEYDYWGQGTQVTVSS,low polyreactivity
6,QVQLVESGGGLVQAGGSLRLSCAASGLIFFVYAMGWYRQAPGKERELVAAISASGVSTNYADSVKGRFTISRDNAKNTVYLQMNSLKPEDTAVYYCAAGRGGYGYWGQGTQVTVSS,low polyreactivity
7,QVQLVESGGGLVQAGGSLRLSCAASGLIFGGNAMGWYRQAPGKERELVAAISRTGGRTYYADSVKGRFTISRDNAKNTVFLQMNSLKPEDTAVYYCAAAAQRPEGYYWGQGTQVTVSS,high polyreactivity
8,QVQLVESGGGLVQAGGSLRLSCAASGLIFGGNAMGWYRQAPGKERELVAAITYRTGSTYYADSVKGRFTISRDNAKNTVYLQMNSLKPEDTAVYYCAAAVSLGYPVAFYYWGQGTQVTVSS,low polyreactivity
9,QVQLVESGGGLVQAGGSLRLSCAASGLIFGRYAMGWYRPAPGKERELVAAITNSDGDTYYADSVKGRFTISRDNAKNTVYLQMNSLKPEDTAVYYCNADDALRQTSDYNYWGQGTQVTVSS,low polyreactivity
10,QVQLVESGGGLVQAGGSLRLSCAASGLIFGWYAMGWYRQAPGKEREFVASIRYGGGSTYYADSVKGRFTISRDNAKKTVYLQMNSLKPEDTAVYYCAAELSVDKYDYWGQGTQETVSS,low polyreactivity
11,QVQLVESGGGLVQAGGSLRLSCAASGLIFGYYALGWYRQAPGKDRELVAAINSGGSTYYADTVKGRFTISRDNAKNTVYLQMNSLKPEDTPVYNCAARYYSEYDYWGHGTQVTVSS,low polyreactivity
12,QVQLVESGGGLVQAGGSLRLSCAASGLIFGYYAMGWYRQAPGTEREFVAAIDGSDGTTYYADSVKGRFTISRDNAKNTVYLQMNSLKPEDTAVYYCNAESSSYSCDMGYDYWGQGTQVTVSS,low polyreactivity
13,QVQLVESGGGLVQAGGSLRLSCAASGLIFGYYGMGWYRQAPGKERELVAVITDDDSTTYADSVKGRFTISRDNAKNTVYLLMNSLKPEDTAVYYCNADNLLGRFDSWGQGTQVTVSS,low polyreactivity
14,QVQLVESGGGLVQAGGSLRLSCAASGLIFHNNAMGWYRQAPGKERELVARITRSCGSTYYADSVKGRFTISRDNAKNTFYLQMNSLKPEDTAVYYCATDALFDSGGMDYWGQGTQVTVSS,low polyreactivity
15,QVQLVESGGGLVQAGGSLRLSCAASGLIFIAYAMGWYRQAPGKERELVAAISSSGGSTYYADSVKGPFTISRDNAKNTFYLQMNSLKPEDTGVYYCAADRFDWGTGRYGYWVQGTQVTVSS,low polyreactivity
16,QVQLVESGGGLVQAGGSLRLSCAASGLIFIAYSMGWYRQAPGKEREFVAAITWNGVSTYYADSVKGRFTISRDNAKNTVYLQMNSLKPEDTAVYDCNADYDFSPWAYEYWGQGTQVTVSS,high polyreactivity
17,QVQLVESGGGLVQAGGSLRLSCAASGLIFIKNAMGWYRQAPGKERELVAAITRGSSTTYADSVKGRFTISRDNAKNTVYLQMNSLKPEDPAVYYCAAQYGGGYLKPYRREYWGQGTQVTVSS,high polyreactivity
18,QVQLVESGGGLVQAGGSLRLSCAASGLIFKKYTMGWYRQAPGKERELVASISKSGGSTYYADSVKGRFTISRDNAKNTVYLLMNSLKPDDTAVYYCAVGSTDRVSAQGSYFTYDYWGQGTQVNVSS,low polyreactivity
19,QVQLVESGGGLVQAGGSLRLSCAASGLIFKSYAMGWYRQAPGKERELVATISSSGSTNYADSVKGRFTISRDNAKNTVYLQMNSLKPEDTAVYYCNADDEVWWWIYDYWGQGTQVTVSS,low polyreactivity
20,QVQLVESGGGLVQAGGSLRLSCAASGLIFKVYAMGWYRQAPWKERELVAAITYSGGSTDYADSVKGRFTISRDNAKNTVYLQMNSLTPEDTAVYYCNVEKVGHVNSYGYDYWGQGTQVNVSS,low polyreactivity
21,QVQLVESGGGLVQAGGSLRLSCAASGLIFKYNAMGWYRQAPGKERELVAAISTSGGSTYYADSVKGRFTISRDNAKNTVYLQMNSLKPEDTAVYYCNAVAGRPFRYYYWGQGTQVTVSS,high polyreactivity
